From the Human Domainome abundance scans (Beltran et al. 2025)
± gives the uncertainty stated by the source.

B1: Friend leukemia integration 1 transcription factor, residues 116 to 197; numbered along this chain, Q01543 (parent)
chain: NMTTNERRVIVPADPTLWTQEHVRQWLEWAIKEYSLMEIDTSFFQNMDGKELCKMNKEDFLRATTLYNTEVLLSHLSYLRES

Variants of: B1
Assay: abundance fitness (aPCA) (normalised: wild type 0, dead -1); higher = more abundant; growth selection in yeast, the domain comes from the species named
Details: Homo sapiens

Variant	abundance fitness
NMTTNERRVIVPADPTLWLQEHVRQWLEWAIKEYSLMEIDTSFFQNMDGKELCKMNKEDFLRATTLYNTEVLLSHLSYLRES [T19L]	-0.243 ± 0.063
NMTTNERRVIVPADPTLWEQEHVRQWLEWAIKEYSLMEIDTSFFQNMDGKELCKMNKEDFLRATTLYNTEVLLSHLSYLRES [T19E]	-0.597 ± 0.38
NMTTNERRVIVPADPTIWTQEHVRQWLEWAIKEYSLMEIDTSFFQNMDGKELCKMNKEDFLRATTLYNTEVLLSHLSYLRES [L17I]	0.024 ± 0.21
NMTTNERRVIVPADPTMWTQEHVRQWLEWAIKEYSLMEIDTSFFQNMDGKELCKMNKEDFLRATTLYNTEVLLSHLSYLRES [L17M]	-0.328 ± 0.14
NMTTNERRVIVPADPTRWTQEHVRQWLEWAIKEYSLMEIDTSFFQNMDGKELCKMNKEDFLRATTLYNTEVLLSHLSYLRES [L17R]	-0.042 ± 0.064
NMTTNERRVIVPADPTAWTQEHVRQWLEWAIKEYSLMEIDTSFFQNMDGKELCKMNKEDFLRATTLYNTEVLLSHLSYLRES [L17A]	0.032 ± 0.075
NMTTNERRVIVPADPTEWTQEHVRQWLEWAIKEYSLMEIDTSFFQNMDGKELCKMNKEDFLRATTLYNTEVLLSHLSYLRES [L17E]	0.087 ± 0.085
NMTTNERRVIVPADPTHWTQEHVRQWLEWAIKEYSLMEIDTSFFQNMDGKELCKMNKEDFLRATTLYNTEVLLSHLSYLRES [L17H]	0.081 ± 0.18
NMTTNERRVIVPADPTFWTQEHVRQWLEWAIKEYSLMEIDTSFFQNMDGKELCKMNKEDFLRATTLYNTEVLLSHLSYLRES [L17F]	-0.132 ± 0.17
NMTTNERRVIVPADPTYWTQEHVRQWLEWAIKEYSLMEIDTSFFQNMDGKELCKMNKEDFLRATTLYNTEVLLSHLSYLRES [L17Y]	-0.096 ± 0.16
NMTTNERRVIVPADPTGWTQEHVRQWLEWAIKEYSLMEIDTSFFQNMDGKELCKMNKEDFLRATTLYNTEVLLSHLSYLRES [L17G]	0.09 ± 0.083
NMTTNERRVIVPADPTWWTQEHVRQWLEWAIKEYSLMEIDTSFFQNMDGKELCKMNKEDFLRATTLYNTEVLLSHLSYLRES [L17W]	-0.203 ± 0.081
NMTTNERRVIVPADPTSWTQEHVRQWLEWAIKEYSLMEIDTSFFQNMDGKELCKMNKEDFLRATTLYNTEVLLSHLSYLRES [L17S]	0.008 ± 0.099
NMTTNERRVIVPADPTDWTQEHVRQWLEWAIKEYSLMEIDTSFFQNMDGKELCKMNKEDFLRATTLYNTEVLLSHLSYLRES [L17D]	0.224 ± 0.24
NMTTNERRVIVPADPTTWTQEHVRQWLEWAIKEYSLMEIDTSFFQNMDGKELCKMNKEDFLRATTLYNTEVLLSHLSYLRES [L17T]	-0.011 ± 0.096
NMTTNERRVIVPADPTQWTQEHVRQWLEWAIKEYSLMEIDTSFFQNMDGKELCKMNKEDFLRATTLYNTEVLLSHLSYLRES [L17Q]	0.037 ± 0.088
NMTTNERRVIVPADPTNWTQEHVRQWLEWAIKEYSLMEIDTSFFQNMDGKELCKMNKEDFLRATTLYNTEVLLSHLSYLRES [L17N]	-0.289 ± 0.17

Variant	abundance fitness
NMTTNERRVIVPADPTKWTQEHVRQWLEWAIKEYSLMEIDTSFFQNMDGKELCKMNKEDFLRATTLYNTEVLLSHLSYLRES [L17K]	-0.085 ± 0.096
NMTTNERRVIVPADPTVWTQEHVRQWLEWAIKEYSLMEIDTSFFQNMDGKELCKMNKEDFLRATTLYNTEVLLSHLSYLRES [L17V]	0.018 ± 0.065
NMTTNERRVIVPADPTLWTGEHVRQWLEWAIKEYSLMEIDTSFFQNMDGKELCKMNKEDFLRATTLYNTEVLLSHLSYLRES [Q20G]	-0.057 ± 0.12
NMTTNERRVIVPADPTLWTTEHVRQWLEWAIKEYSLMEIDTSFFQNMDGKELCKMNKEDFLRATTLYNTEVLLSHLSYLRES [Q20T]	-0.029 ± 0.06
NMTTNERRVIVPADPTLWTKEHVRQWLEWAIKEYSLMEIDTSFFQNMDGKELCKMNKEDFLRATTLYNTEVLLSHLSYLRES [Q20K]	0.138 ± 0.19
NMTTNERRVIVPADPTLWTEEHVRQWLEWAIKEYSLMEIDTSFFQNMDGKELCKMNKEDFLRATTLYNTEVLLSHLSYLRES [Q20E]	-0.195 ± 0.14
NMTTNERRVIVPADPTLWTREHVRQWLEWAIKEYSLMEIDTSFFQNMDGKELCKMNKEDFLRATTLYNTEVLLSHLSYLRES [Q20R]	-0.077 ± 0.084
NMTTNERRVIVPADPTLWTVEHVRQWLEWAIKEYSLMEIDTSFFQNMDGKELCKMNKEDFLRATTLYNTEVLLSHLSYLRES [Q20V]	-0.137 ± 0.078
NMTTNERRVIVPADPTLWTLEHVRQWLEWAIKEYSLMEIDTSFFQNMDGKELCKMNKEDFLRATTLYNTEVLLSHLSYLRES [Q20L]	-0.289 ± 0.08
NMTTNERRVIVPADPTLWTDEHVRQWLEWAIKEYSLMEIDTSFFQNMDGKELCKMNKEDFLRATTLYNTEVLLSHLSYLRES [Q20D]	-0.054 ± 0.18
NMTTNERRVIVPADPTLWTSEHVRQWLEWAIKEYSLMEIDTSFFQNMDGKELCKMNKEDFLRATTLYNTEVLLSHLSYLRES [Q20S]	0.047 ± 0.052
NMTTNERRVIVPADPTLWTNEHVRQWLEWAIKEYSLMEIDTSFFQNMDGKELCKMNKEDFLRATTLYNTEVLLSHLSYLRES [Q20N]	0.218 ± 0.29
NMTTNERRVIVPADPTLWTHEHVRQWLEWAIKEYSLMEIDTSFFQNMDGKELCKMNKEDFLRATTLYNTEVLLSHLSYLRES [Q20H]	0.018 ± 0.35
NMTTNERRVIVPADPTLWTMEHVRQWLEWAIKEYSLMEIDTSFFQNMDGKELCKMNKEDFLRATTLYNTEVLLSHLSYLRES [Q20M]	0.046 ± 0.099
NMTTNERRVIVPADPTLWTAEHVRQWLEWAIKEYSLMEIDTSFFQNMDGKELCKMNKEDFLRATTLYNTEVLLSHLSYLRES [Q20A]	-0.126 ± 0.11
NMTTNERRVIVPADPTLWTPEHVRQWLEWAIKEYSLMEIDTSFFQNMDGKELCKMNKEDFLRATTLYNTEVLLSHLSYLRES [Q20P]	-0.454 ± 0.21
NMTTNERRVIVPADPTLWTCEHVRQWLEWAIKEYSLMEIDTSFFQNMDGKELCKMNKEDFLRATTLYNTEVLLSHLSYLRES [Q20C]	-0.176 ± 0.29
